The supplement of paper PMC6757056
± gives the standard deviation of the averaged measurements.

B1: library; a variant is named by its letters at N, in order (parent)
chain: GCUGUCACCGGUGUAUUACCCUAGUGGUCGACCGGUCUGAUGAGUCUNNNNNNAGACGAAACAGC

Experiments:
hypoxanthine [1] = variants of: B1; assay: normalized RNA/DNA level with ligand (relative to sTRSVctl = 100) (log10 (% of sTRSVctl)); ligand: hypoxanthine (xanthine aptamer); higher = less ribozyme self-cleavage, higher mRNA level; conditions: ligand concentration (+) RNA-Seq: 5 mM, HEK293T, reporter: mCherry (pCS4076), ligand present: yes
Procedure, shortened: (§1)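 For each 6-well well, 4 µg of library plasmid encoding mCherry-linked ribozyme switches, or eGFP-linked ones in some ligand experiments, was transfected into HEK293T. Any ligand was added 1 h before transfection, and RNA was extracted with EDTA 72 h after it, then reverse-transcribed, amplified, barcoded and sequenced. RNA level was obtained by dividing RNA reads by DNA reads, normalizing to a spiked-in non-cleaving sequence or to the top sequences, then scaling and log-transforming. The top set was 25 sequences, scaling was ×100 with log10, and ≥100 DNA reads were required.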

hypoxanthine [2] = variants of: B1; assay: normalized RNA/DNA level without ligand (relative to sTRSVctl = 100) (log10 (% of sTRSVctl)); ligand: hypoxanthine (xanthine aptamer); higher = less ribozyme self-cleavage, higher mRNA level; conditions: HEK293T, reporter: mCherry (pCS4076), ligand present: no
Procedure, shortened: as §1

| Variant | normalized RNA/DNA level with ligand (log10) (hypoxanthine [1]) | normalized RNA/DNA level without ligand (log10) (hypoxanthine [2]) |
| --- | --- | --- |
| ACAUUU | 1.9 ± 0.04 | 1.796 ± 0.01 |
| CCACGG | 1.91 ± 0.028 | 1.85 ± 0.025 |
| CCACGU | 1.93 ± 0.069 | 1.827 ± 0.0023 |
| CCACGC | 2.01 ± 0.015 | 1.864 ± 0.0022 |
| CCACGA | 1.95 ± 0.089 | 1.881 ± 0.0042 |
| GCACUC | 1.945 ± 0.0064 | 1.873 ± 0.0092 |
| CCAAAG | 1.885 ± 0.013 | 1.58 ± 0.033 |
| CCAAAA | 1.92 ± 0.032 | 1.82 ± 0.052 |
| GCCAGA | 1.909 ± 0.0037 | 1.72 ± 0.056 |
| GCCAGC | 1.97 ± 0.047 | 1.81 ± 0.055 |
| UCAAGG | 1.936 ± 0.0091 | 1.79 ± 0.026 |
| UCAAGC | 1.964 ± 0.019 | 1.87 ± 0.053 |
| UCCACC | 2.02 ± 0.029 | 1.931 ± 0.018 |
| UCCACU | 1.957 ± 0.0089 | 1.99 ± 0.07 |
| UCCACA | 1.96 ± 0.037 | 1.835 ± 0.0089 |
| CCAGGG | 1.89 ± 0.11 | 1.37 ± 0.044 |
| CCAGGU | 1.99 ± 0.067 | 1.833 ± 0.0077 |
| CCAGGA | 1.97 ± 0.033 | 1.83 ± 0.022 |
| CCAGGC | 1.97 ± 0.041 | 1.86 ± 0.061 |
| UCACGU | 1.92 ± 0.042 | 1.78 ± 0.062 |
| UCACGA | 1.923 ± 0.011 | 1.8 ± 0.043 |
| UCACGC | 1.94 ± 0.033 | 1.78 ± 0.13 |
| UCACGG | 1.91 ± 0.043 | 1.79 ± 0.051 |
| UCAGUG | 1.93 ± 0.061 | 1.77 ± 0.067 |

| Variant | normalized RNA/DNA level with ligand (log10) (hypoxanthine [1]) | normalized RNA/DNA level without ligand (log10) (hypoxanthine [2]) |
| --- | --- | --- |
| UCAGUC | 1.96 ± 0.056 | 1.9668 ± 0.0014 |
| UCAAAC | 1.916 ± 0.0079 | 1.85 ± 0.03 |
| GAUUCU | 1.97 ± 0.065 | 1.92 ± 0.042 |
| GAUUCA | 1.961 ± 0.017 | 1.86 ± 0.041 |
| GAUUCC | 1.976 ± 0.0082 | 1.92 ± 0.034 |
| UCCAGA | 1.93 ± 0.054 | 1.78 ± 0.048 |
| UCCAGC | 2.03 ± 0.048 | 1.9 ± 0.082 |
| GCCAAU | 1.95 ± 0.053 | 1.798 ± 0.0018 |
| GCCAAC | 1.927 ± 0.014 | 1.74 ± 0.039 |
| CCAUAG | 1.894 ± 0.013 | 1.55 ± 0.06 |
| CCAUAA | 1.914 ± 0.01 | 1.8 ± 0.031 |
| UCAUGU | 1.92 ± 0.038 | 1.628 ± 0.0081 |
| UCAUGG | 1.9 ± 0.034 | 1.69 ± 0.049 |
| UCAUGC | 1.95 ± 0.0044 | 1.882 ± 0.014 |
| ACCAAG | 1.89 ± 0.088 | 1.5 ± 0.098 |
| GCAAUU | 1.952 ± 0.011 | 1.858 ± 0.0079 |
| GAUUUU | 1.947 ± 0.0067 | 1.908 ± 0.0016 |
| GAUUUC | 1.972 ± 0.018 | 1.907 ± 0.012 |
| GCACGU | 1.91 ± 0.053 | 1.73 ± 0.032 |
| GCACGA | 1.925 ± 0.0075 | 1.75 ± 0.077 |
| GCACGC | 1.96 ± 0.06 | 1.86 ± 0.043 |
| CCCACG | 1.917 ± 0.019 | 1.83 ± 0.029 |
| CCCACU | 1.96 ± 0.037 | 1.87 ± 0.022 |
| CCCACC | 2.01 ± 0.063 | 1.96 ± 0.032 |

| Variant | normalized RNA/DNA level with ligand (log10) (hypoxanthine [1]) | normalized RNA/DNA level without ligand (log10) (hypoxanthine [2]) |
| --- | --- | --- |
| ACAGCA | 1.94 ± 0.032 | 1.81 ± 0.028 |
| ACAGCU | 1.92 ± 0.027 | 1.87 ± 0.033 |
| ACAGCC | 1.97 ± 0.021 | 1.919 ± 0.01 |
| AAUUUA | 1.93 ± 0.047 | 1.828 ± 0.0075 |
| AAUUUC | 1.91 ± 0.0075 | 1.926 ± 0.0082 |
| AAUUUU | 1.946 ± 0.013 | 1.886 ± 0.0096 |
| CCAACA | 1.93 ± 0.022 | 1.883 ± 0.017 |
| CCAACG | 1.924 ± 0.0039 | 1.859 ± 0.012 |
| GCAGUU | 1.9707 ± 0.00023 | 1.855 ± 0.015 |
| GCAGUA | 1.948 ± 0.012 | 1.772 ± 0.0069 |
| GCAAAA | 1.928 ± 0.015 | 1.79 ± 0.025 |
| GCAAAG | 1.894 ± 0.0041 | 1.501 ± 0.0085 |
| GAUGUC | 1.95 ± 0.0048 | 1.92 ± 0.02 |
| GAUGUA | 1.887 ± 0.018 | 1.79 ± 0.03 |
| CCCAAC | 1.96 ± 0.072 | 1.87 ± 0.023 |
| CCCAAU | 1.93 ± 0.026 | 1.83 ± 0.04 |
| UCAUCC | 2.032 ± 0.0044 | 2 ± 0.049 |
| UCAUCG | 1.99 ± 0.049 | 1.83 ± 0.058 |
| UCAUCU | 2.026 ± 0.011 | 1.99 ± 0.059 |
| CAUUGC | 1.94 ± 0.06 | 1.87 ± 0.053 |
| CAUUGG | 1.91 ± 0.04 | 1.47 ± 0.068 |
| CAUUGU | 1.94 ± 0.049 | 1.877 ± 0.0085 |
| ACACCG | 1.9 ± 0.12 | 1.55 ± 0.078 |
| ACACCA | 1.97 ± 0.069 | 1.873 ± 0.0035 |

| Variant | normalized RNA/DNA level with ligand (log10) (hypoxanthine [1]) | normalized RNA/DNA level without ligand (log10) (hypoxanthine [2]) |
| --- | --- | --- |
| ACACCU | 1.952 ± 0.016 | 1.84 ± 0.024 |
| CCAUGC | 1.95 ± 0.051 | 1.88 ± 0.069 |
| CCAUGU | 1.913 ± 0.013 | 1.828 ± 0.016 |
| AAUGGU | 1.925 ± 0.016 | 1.592 ± 0.0071 |
| UCAGGC | 1.96 ± 0.073 | 1.96 ± 0.03 |
| UCAGGU | 1.87 ± 0.052 | 1.654 ± 0.0062 |
| ACACAU | 1.92 ± 0.03 | 1.723 ± 0.0032 |
| ACACAA | 1.92 ± 0.065 | 1.78 ± 0.028 |
| ACACAG | 1.84 ± 0.023 | 1.42 ± 0.054 |
| ACACAC | 1.92 ± 0.023 | 1.74 ± 0.022 |
| UCCAAU | 1.94 ± 0.021 | 1.79 ± 0.018 |
| UCCAAC | 2 ± 0.021 | 1.9 ± 0.033 |
| UAUUUU | 1.94 ± 0.044 | 1.86 ± 0.05 |
| UAUUUG | 1.93 ± 0.039 | 1.78 ± 0.026 |
| UAUUUA | 1.93 ± 0.07 | 1.93 ± 0.053 |
| UAUUUC | 1.974 ± 0.01 | 1.911 ± 0.019 |
| CAUUCG | 1.943 ± 0.012 | 1.89 ± 0.07 |
| CAUUCA | 1.92 ± 0.04 | 1.78 ± 0.029 |
| CAUUCU | 1.91 ± 0.021 | 1.86 ± 0.034 |
| CAUUCC | 1.98 ± 0.055 | 1.9 ± 0.048 |
| CAUGUU | 1.94 ± 0.026 | 1.879 ± 0.0072 |
| CAUGUG | 1.93 ± 0.02 | 1.882 ± 0.012 |
| CAUGUA | 1.91 ± 0.011 | 1.771 ± 0.0036 |
| CAUGUC | 1.91 ± 0.056 | 1.92 ± 0.042 |

| Variant | normalized RNA/DNA level with ligand (log10) (hypoxanthine [1]) | normalized RNA/DNA level without ligand (log10) (hypoxanthine [2]) |
| --- | --- | --- |
| ACACUU | 1.95 ± 0.059 | 1.83 ± 0.059 |
| ACACUC | 1.96 ± 0.023 | 1.97 ± 0.063 |
| ACACUA | 1.94 ± 0.053 | 1.801 ± 0.0044 |
| GCAGGU | 1.93 ± 0.031 | 1.73 ± 0.056 |
| GCAGGC | 1.861 ± 0.0028 | 1.65 ± 0.036 |
| AAUUCU | 1.9751 ± 0.00092 | 1.855 ± 0.0071 |
| AAUUCC | 1.98 ± 0.039 | 1.9 ± 0.027 |
| CCACCG | 1.99 ± 0.028 | 1.84 ± 0.2 |
| CCACCA | 1.97 ± 0.026 | 1.88 ± 0.046 |
| CCACCU | 2.033 ± 0.0077 | 1.93 ± 0.053 |
| UCAACC | 1.978 ± 0.0062 | 1.95 ± 0.06 |
| UCAACU | 1.962 ± 0.016 | 1.883 ± 0.0061 |
| GCAAGU | 1.93 ± 0.036 | 1.69 ± 0.043 |
| GCAAGC | 1.89 ± 0.074 | 1.575 ± 0.0013 |
| GCAAGG | 1.84 ± 0.04 | 1.35 ± 0.032 |
| CCACUA | 1.97 ± 0.042 | 1.86 ± 0.071 |
| CCACUC | 2.02 ± 0.059 | 1.98 ± 0.036 |
| CCACUU | 1.94 ± 0.024 | 1.914 ± 0.019 |
| UCAUAU | 1.88 ± 0.029 | 1.77 ± 0.041 |
| UCACCC | 1.97 ± 0.026 | 1.89 ± 0.029 |
